Source: patent publication US12103951B2, “Use of CGRP receptor antagonists in neuroprotection and neurological disorders” (priority 2016, dated 2024)
Entries after “also recorded” stand apart in the source; their conditions may differ. Like-named read-outs stand apart in the source and are kept apart here. Marks after values point to notes of the source that are not given here.

How the values were obtained:
[1] = test system: Total Cholesterol, Triglycerides, Low-density lipoprotein and High-density lipoprotein; assay type: in vivo, Sprague Dawley rats; set-up: HDL / LDL: unit not given here; conditions: for HDL / LDL / T. Chol / Trig: mean, n = 5; for effect on LDL levels in rats (words): normal rats, s.c. daily 14 days, especially male rats, every test dose 100 to 1000 mcg/kg
Protocol: Sprague Dawley rats were administered the CGRP antagonist daily via the subcutaneous route for a period of 14 days, resulting in the surprising effect of LDL lowering. Fifty six animals (36 males and 20 females) were distributed into four groups (consisting each of 5 males and 5 females per group and 4 extra males each for testing group as backups). The groups were as follows: G1—Control, G2—Low dose—100 mcg/kg, G3—Intermediate dose—300 mcg/kg, G4—High dose—1000 mcg/kg.
Rats from the treatment groups were dosed subcutaneously with CGRP receptor antagonists (SEQ ID NO: 1) reconstituted with normal saline at different dose levels per treatment group for 14 days. Control animals were dosed with the vehicle alone.
The acclimatization period was, at a minimum, 7 days. For the randomization, animals were selected and grouped based on stratified randomization by using body weights one day before dosing (day 0) using an Excel program. The route of administration of the antagonist was by a subcutaneous method. The frequency of the administration was daily for fourteen days. The dose volume was set at 5 ml/kg of body weight. The duration of the treatment was fourteen days with administration occurring approximately at the same time each day.
While preparing the dose formulation, required quantities of test item (i.e. CGRP antagonist) was weighed separately. The required volume of normal saline was added to the test item. A clear solution was obtained after addition of normal saline to test item. The test item was administered subcutaneously at the desired dose level once daily for up to 14 days. Homogeneity of the test item in the vehicle was maintained during administration.
The following observations were recorded: • 1. […] Body Weight • Body weight was recorded on day 1, 7, 11 and 15. • 3. Feed Consumption • Feed consumption was recorded daily and reported weekly. • 4. Blood Collection and Laboratory Investigations • Blood samples for were collected from all animals on day 15. The animals were fasted overnight before blood sampling but allowed access to water ad libitum for hematology and biochemistry. Blood samples were drawn from the retro-orbital plexus using a micro-hematocrit heparinized glass capillary tube. Blood samples were centrifuged (3500 rpm) and after centrifugation plasma was separated for further analysis.
Total Cholesterol, Triglycerides, Low-density lipoprotein and High-density lipoprotein parameters are shown in Tables 4 and 5, for male and female rats, respectively. Data from the LDL analysis is shaded.

C-nociceptors = test: Spontaneous activity in C-nociceptors, rat crush-induced sciatic neuropathy (microneurography); conditions: 25 μg/Kg i.p.; for spontaneous activity in C-fibers (action potentials recorded in the sciatic nerve): after administration, FIG. 1
Protocol: To investigate the effects of a CGRP receptor antagonist on pathological spontaneous activity in C-nociceptors the following experiments were performed on Sprague-Dawly rats. Crush-inducing sciatic neuropathy was produced in 12 male Sprague-Dawley rats. Spontaneous activity in injured C-nociceptors was then detected with microneurography and the response to CGRP receptor antagonist was assessed under unblind conditions. This study aimed to assess the effect of the CGRP receptor antagonist, on electrophysiological measures of spontaneous activity in subpopulations of injured C-nociceptors in a model of neuropathic pain, and to investigate the effects of the CGRP receptor antagonist on pathological spontaneous activity in peripheral C-nociceptors.
All surgical procedures were performed under general anesthesia (ketamine 90 mg/kg+xylazine 10 mg/kg i.p. (intraperitoneal)). The sciatic nerve was exposed at mid-thigh level. A standardized injury was produced by crushing the nerve three times in succession with a very fine point forcep at a constant point, 90 mm from the tip of the third digit. The wound was then sutured by layers and disinfected with povidone iodine. The animals received an analgesic subcutaneous (s.c). dose of buprenorphine and were maintained in a warm environment until full recovery from the anesthetic, and were allowed to recover from the nerve injury for a minimum of 70 days.
CGRP receptor antagonist (SEQ ID NO: 1) was dissolved according to manufacturer's instructions in saline solution, at a final concentration of 25 μg/Kg. Volumes of the intraperitoneal (i.p.) injected bolus ranged from 0.48 to 0.58 ml.
Animals weighing 478±36 g (mean±SD) on the day of the recording were anesthetized with ketamine (90 mg/Kg) and xylazine (10 mg/Kg) injected i.p (intraperitoneal). Repeated administrations of one-half of the initial dose were performed as required to maintain the level of anesthesia, usually every hour.
Recordings of the sciatic nerve electrical activity were obtained inserting a tungsten microelectrode (FHC, Bowdoinham, ME, USA, nominal impedance 50-100KΩ, shaft Ø 175 μm (Ø=diameter)) into the sciatic nerve trunk with the aid of a micromanipulator. The recording electrode was carefully advanced into the nerve with the micromanipulator until characteristic neural audio signal could be heard. The method follows the same principles of the microneurographic technique employed in human patients.
The neural signals were first amplified with an isolated, high input impedance amplifier, band-pass filtered (maximum range 50-5000 Hz) and passed through a noise eliminator. The signal was then fed to an AM10 audio-monitor with noise clipper (Grass Technologies, Warwick, RI, USA) and to computers running separate software for collecting spontaneous and electrically evoked activity. Electrical stimuli were delivered to the cutaneous receptive field of the units by means of a constant current stimulator (DS7A, Digitimer, Welwyn Garden City, Hertfordshire, UK).
Electrical stimuli were triggered and the responses to electrical stimulation recorded and analyzed with a PC and PCI-6221M data acquisition board (National Instruments, […], USA) running QTRAC software (©Institute of Neurology, London, UK). Spontaneous activity was digitized at 20 kHz and recorded continuously on one of the computers running LabChart software (PowerLab Systems, ADInstruments Ltd., Bella Vista, New South Wales, Australia). Analysis was performed with software written by Neuroscience Technologies, Science Park of Barcelona, Spain, to detect and quantify spontaneous activity.
Trigger pulses were delivered to the stimulator at different frequencies necessary to induce ADS of conduction velocity of the recorded C-fibers. The digitized responses were stored on computer as raw data for off-line analysis.

[2] = female rats, 100 mcg/kg b.w. s.c. daily 14 days, day 15
[3] = female rats, 300 mcg/kg b.w. s.c. daily 14 days, day 15
[4] = female rats, 1000 mcg/kg b.w. s.c. daily 14 days, day 15
[5] = male rats, 100 mcg/kg b.w. s.c. daily 14 days, day 15
[6] = male rats, 300 mcg/kg b.w. s.c. daily 14 days, day 15
[7] = male rats, 1000 mcg/kg b.w. s.c. daily 14 days, day 15
[8] = 10 min before vs 10 min after administration, paired t-test, listed as CGRP receptor antagonist

NH2-Ala-Cys-Asp-Thr-Ala-Ala-Cys-Val-Leu-Gly-Arg-Leu-Ser-Gln-Glu-Leu-His-Arg-Leu-Gln-Thr-Tyr-Pro-Arg-Thr-Asn-Val-Gly-Ser-Lys-Ala-Phe-NH2 (H-ACDTAACVLGRLSQELHRLQTYPRTNVGSKAF-NH2; ends and bridges not checked) [SEQ ID NO: 1]
other non-cholesterol related clinical biochemistry parameters ([1]; day 15, vs control, data not shown): none were significantly different from control | HDL [1, 2]: 59.00 | LDL [1, 2]: 11.08 | T. Chol [1, 2]: 84.20 mg/dL | Trig [1, 2]: 70.60 mg/dL | HDL [1, 3]: 61.60 | LDL [1, 3]: 12.60 | T. Chol [1, 3]: 91.00 mg/dL | Trig [1, 3]: 84.00 mg/dL | HDL [1, 4]: 54.80 | LDL [1, 4]: 9.40 | T. Chol [1, 4]: 80.60 mg/dL | Trig [1, 4]: 82.00 mg/dL | HDL [1, 5]: 51.60 | LDL [1, 5]: 2.96 | T. Chol [1, 5]: 78.00 mg/dL | Trig [1, 5]: 121.40* mg/dL | HDL [1, 6]: 46.00 | LDL [1, 6]: 4.16 | T. Chol [1, 6]: 69.60 mg/dL | Trig [1, 6]: 97.20 mg/dL | HDL [1, 7]: 37.00 | LDL [1, 7]: 4.72 | T. Chol [1, 7]: 58.20 mg/dL | Trig [1, 7]: 82.40 mg/dL | effect on LDL levels in rats (words) [1]: lowered LDL concentrations in blood | effect on LDL levels in rats (words) ([1]; listed as CGRP antagonist): LDL lowering | effect on LDL levels in rats (words) ([1]; listed as CGRP receptor antagonist): substantial LDL lowering | effect on LDL levels in rats (words) ([1]; listed as peptide CGRP antagonist): lowering the LDL levels | SLI/10 min (Significant Latency Increase) (C-nociceptors; [8]): did not reveal a statistically significant effect; also recorded: No significant differences were observed | TI (%) (Total Increase) (C-nociceptors; [8]): did not reveal a statistically significant effect; also recorded: No significant differences were observed | spontaneous activity in C-fibers (action potentials recorded in the sciatic nerve) (C-nociceptors; rat crush sciatic neuropathy): preventing further spontaneous activity in the C-fibers | spontaneous activity in C-fibers (action potentials recorded in the sciatic nerve) (C-nociceptors; rat crush sciatic neuropathy, listed as CGRP receptor antagonist): virtually no excitation observed | spontaneous activity at long intervals after the administration (C-nociceptors; rat crush sciatic neuropathy, up to 90 min): less spontaneous activity | Morbidity and mortality (C-nociceptors; rats, whole procedure): in good condition during the whole procedure
